Laboratory results reported in patent US20050118674A1, “Engineering of Controlled Deamidation Rates in Peptides, Proteins, and Similar Structures” (priority 2003, published 2005).
Where no end group is shown, it is not given here.

Assay: First-order nonenzymatic deamidation of pentapeptides in Tris buffer
Type: physicochemical
Settings: 0.15 M Tris HCl; for First-Order Deamidation Halftimes of GlyXxxAsnYyyGly: pH 7.4, 37.0° C., Asn pentapeptides; for First-Order Deamidation Halftimes of GlyXxxGlnYyyGly: pH 7.4, 37.0 ° C., Gln pentapeptides, 52 values measured, rest derived from surface fitting
Protocol: One of the discoveries made was that the sequence dependence of deamidation is much richer and covers a wider range than previously thought. In 37° C., pH 7.4, 0.15 M Tris buffer, the combination of XxxAsnYyy and XxxGlnYyy sequences where Xxx and Yyy are any of the naturally occuring amino acids covers a range from less than 1 day to over 15,000 days with the entire range in between available.
It is based on pentapeptide rates measure in 37° C., pH 7.4, 0.15 M Tris buffer. The applicability of a pentapeptide model to sequence dependence was verified in a separate set of experiments. All values listed in this table are experimental except for the four values in boxes, which were estimated from the rest of the data.
It is also based on pentapeptide rates measure in 37° C., pH 7.4, 0.15 M Tris buffer. In this case, the 52 values shown in bold were measured, and the rest of the values were derived from surface fitting.
Deamidation rates are affected by a wide variety of parameters, including, pH, Temperature, Ionic Strength, and Buffer Ions. These rates are measured under pH and Temperature conditions that are applicable to biological systems. The buffer type and concentration were chosen to minimize ion affects to the extent possible given the experimental limitations. Modification of these conditions will change the rates in Tables 1 and 2. As long as the conditions are not taken to extremes (i.e. high temperature, or strongly acidic or basic conditions) the qualitative sequence dependence should remain the same and the rates reported here can be used with necessary adjustments.

| Substance | First-Order Deamidation Halftimes of GlyXxxAsnYyyGly | First-Order Deamidation Halftimes of GlyXxxGlnYyyGly |
| --- | --- | --- |
| GlyIleAsnSerGly (GINSG; printed: GlyIleAsnSerGly) | 14.5 days |  |
| GlyAmCysAsnAmCysGly | 39.3 days |  |
| GlyArgAsnLysGly (GRNKG; printed: GlyArgAsnLysGly) | 49.6 days |  |
| GlyHisAsnGluGly (GHNEG; printed: GlyHisAsnGluGly) | 69.4 days |  |
| GlyAlaGlnPheGly (GAQFG; printed: GlyAlaGlnPheGly) |  | 7500 days |
| GlyGlyGlnPheGly (GGQFG; printed: GlyGlyGlnPheGly) |  | 7600 days |
| GlyPheAsnPheGly (GFNFG; printed: GlyPheAsnPheGly) | 69.5 days |  |
| GlyLeuAsnCysGly (GLNCG; printed: GlyLeuAsnCysGly) | 53.5 days |  |
| GlyValAsnSerGly (GVNSG; printed: GlyValAsnSerGly) | 18.2 days |  |
| GlyLysAsnAmCysGly | 36.5 days |  |
| GlyThrGlnArgGly (GTQRG; printed: GlyThrGlnArgGly) |  | 5100 days |
| GlyGluAsnTrpGly (GENWG; printed: GlyGluAsnTrpGly) | 98.4 days |  |
| GlyGlyGlnIleGly (GGQIG; printed: GlyGlyGlnIleGly) |  | 6300 days |
| GlyMetAsnHisGly (GMNHG; printed: GlyMetAsnHisGly) | 10.2 days |  |
| GlyLysAsnCysGly (GKNCG; printed: GlyLysAsnCysGly) | 49.0 days |  |
| GlyAmCysAsnThrGly (CNTG; not fully specified (N-terminus); printed as GlyAmCysAsnThrGly) | 41.7 days |  |
| GlyValGlnHisGly (GVQHG; printed: GlyValGlnHisGly) |  | 5000 days |
| GlyPheAsnProGly (GFNPG; printed: GlyPheAsnProGly) | 7990 days |  |
| GlyGlyGlnHisGly (GGQHG; printed: GlyGlyGlnHisGly) |  | 5900 days |
| GlyTyrAsnArgGly (GYNRG; printed: GlyTyrAsnArgGly) | 56.9 days |  |
| GlyGluGlnArgGly (GEQRG; printed: GlyGluGlnArgGly) |  | 5200 days |
| GlyLysAsnArgGly (GKNRG; printed: GlyLysAsnArgGly) | 57.4 days |  |
| GlyGluGlnThrGly (GEQTG; printed: GlyGluGlnThrGly) |  | 5400 days |
| GlyTyrGlnGluGly (GYQEG; printed: GlyTyrGlnGluGly) |  | 8300 days |
| GlyPheAsnLysGly (GFNKG; printed: GlyPheAsnLysGly) | 58.2 days |  |

| Substance | First-Order Deamidation Halftimes of GlyXxxAsnYyyGly | First-Order Deamidation Halftimes of GlyXxxGlnYyyGly |
| --- | --- | --- |
| GlyPheAsnTyrGly (GFNYG; printed: GlyPheAsnTyrGly) | 75.1 days |  |
| GlyLysAsnPheGly (GKNFG; printed: GlyLysAsnPheGly) | 70.1 days |  |
| GlyTyrAsnValGly (GYNVG; printed: GlyTyrAsnValGly) | 241 days |  |
| GlyLysAsnTrpGly (GKNWG; printed: GlyLysAsnTrpGly) | 98.1 days |  |
| GlyPheGlnAspGly (GFQDG; printed: GlyPheGlnAspGly) |  | 8200 days |
| GlyGlyGlnTrpGly (GGQWG; printed: GlyGlyGlnTrpGly) |  | 15000 days |
| GlyProAsnThrGly (GPNTG; printed: GlyProAsnThrGly) | 63.1 days |  |
| GlyAspGlnAspGly (GDQDG; printed: GlyAspGlnAspGly) |  | 8400 days |
| GlyCysGlnProGly (GCQPG; printed: GlyCysGlnProGly) |  | 7100 days |
| GlyMetGlnTyrGly (GMQYG; printed: GlyMetGlnTyrGly) |  | 8200 days |
| GlyTrpGlnProGly (GWQPG; printed: GlyTrpGlnProGly) |  | 11000 days |
| GlyAlaAsnAlaGly (GANAG; printed: GlyAlaAsnAlaGly) | 22.5 days |  |
| GlyMetAsnProGly (GMNPG; printed: GlyMetAsnProGly) | 9300 days |  |
| GlyPheAsnIleGly (GFNIG; printed: GlyPheAsnIleGly) | 287 days |  |
| GlyLeuGlnAspGly (GLQDG; printed: GlyLeuGlnAspGly) |  | 7800 days |
| GlyGlyAsnGlyGly (GGNGG; printed: GlyGlyAsnGlyGly) | 1.03 days |  |
| GlyProAsnIleGly (GPNIG; printed: GlyProAsnIleGly) | 455 days |  |
| GlyCysGlnIleGly (GCQIG; printed: GlyCysGlnIleGly) |  | 4900 days |
| GlyCysAsnGluGly (GCNEG; printed: GlyCysAsnGluGly) | 48.3 days |  |
| GlyTrpGlnArgGly (GWQRG; printed: GlyTrpGlnArgGly) |  | 8300 days |
| GlyLysGlnMetGly (GKQMG; printed: GlyLysGlnMetGly) |  | 4000 days |
| GlyGluAsnSerGly (GENSG; printed: GlyGluAsnSerGly) | 16.4 days |  |
| GlyTyrAsnLysGly (GYNKG; printed: GlyTyrAsnLysGly) | 55.1 days |  |
| GlySerGlnAlaGly (GSQAG; printed: GlySerGlnAlaGly) |  | 6400 days |
| GlyThrGlnGluGly (GTQEG; printed: GlyThrGlnGluGly) |  | 5900 days |

| Substance | First-Order Deamidation Halftimes of GlyXxxAsnYyyGly | First-Order Deamidation Halftimes of GlyXxxGlnYyyGly |
| --- | --- | --- |
| GlyLysGlnSerGly (GKQSG; printed: GlyLysGlnSerGly) |  | 4200 days |
| GlyTrpAsnHisGly (GWNHG; printed: GlyTrpAsnHisGly) | 11.3 days |  |
| GlyThrAsnAmCysGly | 34.4 days |  |
| GlyLeuAsnTyrGly (GLNYG; printed: GlyLeuAsnTyrGly) | 75.7 days |  |
| GlyArgGlnTrpGly (GRQWG; printed: GlyArgGlnTrpGly) |  | 11000 days |
| GlyAspAsnTyrGly (GDNYG; printed: GlyAspAsnTyrGly) | 70.4 days |  |
| GlyArgAsnMetGly (GRNMG; printed: GlyArgAsnMetGly) | 74.4 days |  |
| GlyTyrGlnTrpGly (GYQWG; printed: GlyTyrGlnTrpGly) |  | 18000 days |
| GlyPheGlnProGly (GFQPG; printed: GlyPheGlnProGly) |  | 10000 days |
| GlyGluGlnSerGly (GEQSG; printed: GlyGluGlnSerGly) |  | 6100 days |
| GlyAspAsnLysGly (GDNKG; printed: GlyAspAsnLysGly) | 75.9 days |  |
| GlyTrpGlnLeuGly (GWQLG; printed: GlyTrpGlnLeuGly) |  | 7900 days |
| GlyCysGlnThrGly (GCQTG; printed: GlyCysGlnThrGly) |  | 3500 days |
| GlySerAsnSerGly (GSNSG; printed: GlySerAsnSerGly) | 15.1 days |  |
| GlyThrGlnMetGly (GTQMG; printed: GlyThrGlnMetGly) |  | 3700 days |
| GlyGlyGlnThrGly (GGQTG; printed: GlyGlyGlnThrGly) |  | 5200 days |
| GlyAspAsnSerGly (GDNSG; printed: GlyAspAsnSerGly) | 17.0 days |  |
| GlyThrGlnAspGly (GTQDG; printed: GlyThrGlnAspGly) |  | 6300 days |
| GlyGlyGlnAspGly (GGQDG; printed: GlyGlyGlnAspGly) |  | 7600 days |
| GlyValGlnValGly (GVQVG; printed: GlyValGlnValGly) |  | 5900 days |
| GlyTrpAsnTrpGly (GWNWG; printed: GlyTrpAsnTrpGly) | 135 days |  |
| GlyTrpAsnPheGly (GWNFG; printed: GlyTrpAsnPheGly) | 71.1 days |  |
| GlyThrAsnGluGly (GTNEG; printed: GlyThrAsnGluGly) | 60.8 days |  |
| GlyGluAsnTyrGly (GENYG; printed: GlyGluAsnTyrGly) | 94.5 days |  |
